Results on one molecule are retold here after patent US20180094051A1, “METHOD FOR INHIBITING LYMPHANGIOGENESIS BY ADMINISTRATION OF AN INHIBITOR OF THE CXCL12 PATHWAY” (Tsinghua University, priority 2012, published 2018).

Experiment [1] has as its system mouse lymphatic endothelial cells. The experiment in a line: Cell chemotaxis assay (Transwell). It counts as cell-based. The following applies: agent in outer chamber (CXCL12 1, 20, 100 ng/mL; VEGF-C 100 ng/mL), 6 hours. The protocol:
The migration ability of mouse lymphatic endothelial cells was assessed using 8-μm-pore Transwell bucket (filter membrane) (purchased from Costar). The transwell bucket was placed into a 24-well plate. Mouse primary lymphatic endothelial cells (mLECs) at passage 2 or 3 in good conditions were selected, and divided into five groups, four parallel samples for each group and approximately 2×10^4 cells for each parallel sample. The cells were digested with trypsin, resuspended in 200 μL of fresh serum-free endothelial cell culture medium (ECM, purchased from Sciencell), and then seeded into the inner chambers of the Transwell bucket. To each outer chamber was added 800 μL of serum-free endothelial cell culture medium mixed with 1 ng/mL, 20 ng/mL, 100 ng/mL of chemokine CXCL12 (purchased from R&D Systems), 100 ng/mL of VEGF-C (purchased from R&D Systems) and PBS control, respectively. The culture plate was placed into an incubator and incubated under 5% CO2 at 37° C. for 6 hours.
After taking out the culture plate, the Transwell bucket was fixed in 4% paraformaldehyde solution for 15 minutes. The Transwell bucket was rinsed twice in PBS, stained with 0.1% crystal violet solution for 30 minutes, and then washed with PBS to remove the non-specifically bound crystal violet. The cells inside Transwell membrane were wiped off gently with medical cotton swabs. Note that the cells on the edge of the membrane should also be wiped off to avoid affecting cell counting. The Transwell bucket was placed under a microscope (Olympus IX71 microscope), and the cells migrated from the outer membrane were observed by microscopy. 8 fields per group were photographed randomly to count the cells.
The migration ability of mouse lymphatic endothelial cells was assessed using 8-μm-pore Transwell bucket (purchased from Costar). The bucket was placed into a 24-well plate. Mouse primary lymphatic endothelial cells (mLECs) at passage 2 or 3 in good conditions were selected, and divided into six groups, four parallel samples for each group, and approximately 2×10^4 cells for each parallel sample. The cells were digested with trypsin and resuspended in 200 μL, of fresh serum-free endothelial cell culture medium (ECM, purchased from Sciencell). The cells were pretreated for 30 minutes with dimethyl sulfoxide (DMSO) as a control, protein kinase B (Akt) antagonist LY294002 (10 μM, purchased from Sigma-Aldrich) and extracellular signal-regulated kinase (Erk) antagonist U0126 (10 μM, purchased from Sigma-Aldrich), respectively, and then seeded into the inner chambers of the Transwell bucket. […] The cells were stained and the number of the migrated cells was counted.
The migration ability of mouse lymphatic endothelial cells was detected by using 8-μm-pore Transwell bucket (purchased from Costar). […]

The test system of a further experiment is chemokine receptor CXCR4. The experiment in a line: qRT-PCR of chemokine receptor mRNA in VEGF-C-stimulated lymphatic endothelial cells. The experiment is classed as cell-based. The following applies: VEGF-C-stimulated mouse lymphatic endothelial cells vs untreated cells. On the procedure:
The isolation and extraction of total RNA from cells was performed using TRIZOL reagent (purchased from Invitrogen) following the standard operations as described in the reagent instructions. 1 mL of TRIZOL was added to the primary lymphatic endothelial cells (about 1×10^6) collected by centrifugation, repeatedly pipetted up and down for 30 times, and then set aside at room temperature for 5 minutes. After centrifugation at 10,000×g at 4° C. for 15 minutes, the supernatant was […] gently. 0.2 mL of chloroform was added to the supernatant, vortexed vigorously for about 15 seconds, and then set aside at room temperature for 3 minutes. […]
The synthesis of first strand cDNA was performed using a Fermentas kit (RevertAid™ First Strand cDNA Synthesis Kits) according to the standard instructions. […] The reverse transcription product was used in subsequent PCR and fluorescence quantitative RT-PCR, and the rest of the product was stored in a refrigerator at −80° C.
Fluorescence Quantitative Real-Time PCR was performed using a kit from Stratagene (Brilliant II SYBR® Green QRT-PCR Master Mix). The fluorescence quantitative PCR instrument was MX3000P (purchased from Stratagene), the fluorescence dye was SYBR Green, the volume of the reaction system was 20 μL, and the cycle number of the reaction was 40. […]
On the technique in general: In qPCR the cycle at which signal appears reflects the starting amount.

“Also recorded” adds a separate entry of the source.

B1: VEGF-C: Vascular Endothelial Growth Factor C, the major pro-lymphangiogenesis factor; purchased from R&D Systems (protein, UniProt P49767 112-227, looked up)
Vascular endothelial growth …: AHYNTEILKSIDNEWRKTQCMPREVCIDVGKEFGVATNTFFKPPCVSVYRCGGCCNSEGLQCMNTSTSYLSKTLFEITVPLSQGPKPVTISFANHTSCRCMSKLDVYRQVHSIIRR
On to B1, for which the “migration of mouse lymphatic endothelial cells” value in experiment [1] is recorded as “could promote the migration of mouse lymphatic endothelial cells”. The “chemokine receptor CXCR4 mRNA level” value in the experiment on chemokine receptor CXCR4 is “significantly upregulated by about three times; also recorded: specifically up-regulated the expression of chemokine receptor CXCR4”.
